Results published in patent US10906977B2, “Enhancing the therapeutic activity of immune checkpoint inhibitor” (Maine Medical Center Research Institute, priority 2016, dated 2021).

Legend:
integrin α2β1 [1] = target: T1, integrin α2β1 (Homo sapiens, UniProt P05556+P17301); assay: Solid-phase integrin binding to synthetic HU177 epitope (PGF peptide); conditions: peptide immobilized 100 ug/ml; FIG. 23F
T1 construct: purchased R&D Systems
Description: (§1) Plates were coated with 25 μg/ml of native or denatured (boiled 15 minutes) collagen. Collagen epitope peptide PGF and Cont-peptides were immobilized at 100 ug/ml. Integrins (0-2.0 μg/ml) were diluted in binding buffer containing 20 mM Tris, 15 mM NaCl, 1 mM MgCl2, 0.2 mM MnCl2, 0.5% BSA pH 7.4 as described (13). Integrins were allowed to bind for 1 hr and plates washed and incubated with anti-integrin antibodies (1:100 dilution) for 1 hr. Plates were washed and incubated with HRP-labeled secondary antibodies (1:5000 dilution). In a second assay, integrins (0.5 μg/ml) were coated in binding buffer and plates were washed, blocked as before and denatured (boiled 15 minutes) collagen was added (0-10.0 μg/ml). Denatured collagen was detected with anti-collagen antibody (1:1000). For integrin blocking ELISAs, wells were coated with denatured collagen and pre-treated (0.1 μg/ml) with anti-HU177 or control antibody. Following washing, wells were incubated with integrins (2.0 μg/ml) and binding was detected as described. Assays were carried out at least 3 times.

integrin α10β1 [2] = target: T2, integrin α10β1 (Homo sapiens, UniProt O75578+P05556); assay: as above; conditions: peptide immobilized 100 ug/ml; FIG. 23F
T2 construct: purchased R&D Systems
Description: as §1

integrin αvβ3 [3] = target: T3, integrin αvβ3 (Homo sapiens, UniProt P05106+P06756); assay: as above; conditions: peptide immobilized 100 ug/ml; FIG. 23F
T3 construct: purchased R&D Systems (Minneapolis, Minn.)
Description: as §1

TGF-β = assay: Serum cytokines in B16F10 tumor bearing mice injected with cPG peptide (ELISA); assay type: in vivo, C57BL/6 mice; conditions: injected 3× per week; serum after 14 days; FIG. 26A
Description: FIG. 26A-FIG. 26C is a series of bar charts showing that the injection of a peptide (cPG) containing the HU177 collagen epitope induces expression of the immune suppressive growth factor TGF-β in mouse circulation. C57BL/6 mice were injected subcutaneously with B16F10 melanoma cells (0.5×10^6) and tumors were allowed to form. Mice were next injected 3× per week with […] per mouse of cPG peptide. Serum was […] after 14 days. Serum was diluted in assay buffer and the relative levels of cytokines were examined by ELISA. FIG. 26A is a bar graph wherein data bars represent relative levels of TGF-β as determined by ELISA from control (DMSO) treated mouse and two different cPG peptide treated mice. FIG. 26B is a bar graph wherein data bars represent relative levels of IL-4 as determined by ELISA from control (DMSO) treated mouse and two different cPG peptide treated mice. FIG. 26C is a bar graph wherein data bars represent relative levels of IL-1β as determined by ELISA from control (DMSO) treated mouse and two different cPG peptide treated mice.
C57BL/6 mice were injected subcutaneously with B16F10 melanoma cells (0.5×10^6) and tumors were allowed to form. […] FIG. 26A is a bar graph wherein data bars represent relative levels of TGF-β as determined by ELISA from control (DMSO) treated mouse and two different cPG peptide treated mice. […]

integrin α10β1 [4] = target: T2, integrin α10β1; assay: Solid-phase integrin binding to denatured collagen
Description: as §1

PDL-1 [5] = assay: PDL-1 protein in M21 melanoma cells on immobilized XL313 epitope (Western blot); assay type: cell-based, human; conditions: 15 minute incubation; vs uncoated wells; FIG. 15
Description: Integrin αvβ3 expressing melanoma cells (M21) were seeded on control uncoated wells or wells immobilized with the XL313 cryptic collagen epitope (RGDKGE (SEQ ID NO: 1)). Following a 15 minute incubation cell lysates were prepared. The relative levels of PDL-1 or loading control β-actin were assessed by Western blot.
Integrin αvβ3 expressing melanoma cells (M21) were seeded onto control uncoated wells or wells immobilized with the XL313 cryptic collagen epitope (RGDKGE (SEQ ID NO: 1)) (FIG. 15). Following an incubation period, cell lysates were prepared and relative levels of PDL-1 were assessed.

PDL-1 [6] = assay: PDL-1 protein in cells attached to denatured collagen-IV (Western blot); assay type: cell-based; conditions: M21, CCL-49, HUVEC; vs native collagen-IV; FIG. 14
Description: FIG. 14A and FIG. 14B are blots of integrin αvβ3 expressing melanoma cells (M21 and […]) and FIG. 14C is a blot depicting that endothelial cells (HUVEC) were allowed to attach to well coated with either a non-αvβ3 binding ligand (native collagen-IV) or an αvβ3 binding ligand (denatured collagen-IV). Whole cell lysates were prepared and the relative levels of PDL-1 or loading control β-actin were assessed by Western blot.
Integrin αvβ3 expressing melanoma cells M21 (FIG. 14A) and CCL-49 (FIG. 14B) and endothelial cells (HUVEC) (FIG. 14C) were attached to wells coated with either a non-αvβ3 binding ligand (native collagen-IV) or an αvβ3 binding ligand (denatured collagen-IV). Whole cell lysates were prepared and the relative levels of PDL-1 or β-actin loading control were assessed.

fibroblasts [7] = assay: Cell adhesion on native or denatured collagen; assay type: cell-based, human; conditions: FIG. 20B
Description: (§2) The wells of non-tissue culture forty-eight well cluster plates were coated for 12 hrs at 4° C. with 5 μg/ml of native or denatured (boiled 15 minutes) collagen prepared as described above. SKOV-3 and fibroblasts were suspended in adhesion buffer containing RPMI 1640, 1 mM MgCl2, 0.2 mM MnCl2 and 0.5% BSA (13) and 1×10^5 cells were added in the presence or absence of anti-HU177 or control antibodies (100 μg/ml). Cells were allowed to attach for 25 minutes. Non-attached cells were removed by washing and attached cells stained with crystal violet as described (13). Wells were washed and the cell-associated crystal violet was eluted with 100 ul per well of 10% acetic acid. Cell adhesion was quantified by measuring the optical density of the eluted crystal violet as described (15). Assays were completed at least 3×.

SKOV-3 cells [8] = assay: Cell adhesion on native or denatured collagen; assay type: cell-based, human; conditions: FIG. 20A
Description: as §2

fibroblasts [9] = assay: Transwell cell migration on native or denatured collagen; assay type: cell-based, human; conditions: FIG. 20D
Description: (§3) Transwell membranes (8.0 um pore size) were coated with 5 μg/ml of native or denatured collagen for 12 hrs at […] as described previously (13). Migration buffer containing RPMI 1640, 1 mM MgCl2, 0.2 mM MnCl2 and 0.5% BSA in the presence or absence of 5× concentrated serum free SKOV-3 CM or 20 ng/ml FGF-2 was placed in the lower chambers. SKOV-3 or fibroblasts (1×105) were resuspended in migration buffer containing RPMI 1640, 1 mM MgCl2, 0.2 mM MnCl2 and 0.5% BSA in the presence or absence of antibodies directed to the HU177 epitope, or α10β1, (10 μg/ml) or 100 uM of the MEK inhibitor ([…]). Cells were added to the top chamber and allowed to migrate from 2 to 4 hrs. Cells remaining on the top of the membranes were removed and cells that had migrated to the underside of the membrane were quantified by direct cell counts of crystal violet stained cells or by measuring the optical density of eluted cell-associated crystal violet dye as previously described (15). Assays were completed at least 3×.

SKOV-3 cells [10] = assay: as above; assay type: cell-based, human; conditions: FIG. 20C
Description: as §3

integrin α2β1 [11] = target: T1, integrin α2β1; assay: Solid-phase integrin binding to denatured collagen; conditions: FIG. 23A
Description: as §1

integrin α1β1 = target: T4, integrin α1β1 (Homo sapiens, UniProt P05556+P56199); assay: Solid-phase integrin binding to denatured collagen; conditions: FIG. 23A
T4 construct: purchased R&D Systems (Minneapolis, Minn.)
Description: as §1

integrin αvβ3 [12] = target: T3, integrin αvβ3; assay: Solid-phase integrin binding to denatured collagen; conditions: FIG. 23A
Description: as §1

T2 sequence (O75578 23-1122 limits assumed): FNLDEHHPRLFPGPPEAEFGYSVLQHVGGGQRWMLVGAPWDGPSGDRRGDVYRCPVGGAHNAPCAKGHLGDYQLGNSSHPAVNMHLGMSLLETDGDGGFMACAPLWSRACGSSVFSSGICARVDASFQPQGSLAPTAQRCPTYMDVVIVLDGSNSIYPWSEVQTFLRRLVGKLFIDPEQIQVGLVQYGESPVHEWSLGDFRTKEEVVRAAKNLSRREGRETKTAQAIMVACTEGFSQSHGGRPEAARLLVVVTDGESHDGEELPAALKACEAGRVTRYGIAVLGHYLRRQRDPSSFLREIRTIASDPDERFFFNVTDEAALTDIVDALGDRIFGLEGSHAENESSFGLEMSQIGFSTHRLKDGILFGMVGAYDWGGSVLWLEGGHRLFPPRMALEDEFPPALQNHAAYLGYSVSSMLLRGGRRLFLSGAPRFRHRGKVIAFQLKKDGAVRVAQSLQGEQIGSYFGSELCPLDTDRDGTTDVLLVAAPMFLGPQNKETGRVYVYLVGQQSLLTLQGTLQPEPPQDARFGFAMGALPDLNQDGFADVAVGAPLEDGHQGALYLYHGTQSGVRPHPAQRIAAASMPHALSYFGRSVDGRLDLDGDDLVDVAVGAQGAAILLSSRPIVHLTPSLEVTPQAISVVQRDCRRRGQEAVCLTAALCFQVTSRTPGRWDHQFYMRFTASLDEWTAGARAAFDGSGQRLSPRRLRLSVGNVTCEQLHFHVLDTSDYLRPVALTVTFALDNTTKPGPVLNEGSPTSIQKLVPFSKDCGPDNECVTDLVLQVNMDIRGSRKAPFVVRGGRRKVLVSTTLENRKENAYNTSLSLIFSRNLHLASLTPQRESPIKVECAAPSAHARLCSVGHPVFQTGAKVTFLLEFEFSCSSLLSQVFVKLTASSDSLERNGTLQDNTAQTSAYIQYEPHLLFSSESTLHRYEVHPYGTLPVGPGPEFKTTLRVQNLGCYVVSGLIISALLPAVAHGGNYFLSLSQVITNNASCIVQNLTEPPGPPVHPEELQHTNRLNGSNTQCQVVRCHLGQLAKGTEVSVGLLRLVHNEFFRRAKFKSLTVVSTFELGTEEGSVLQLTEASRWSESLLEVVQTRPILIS
T2 sequence (P05556 21-728 limits assumed): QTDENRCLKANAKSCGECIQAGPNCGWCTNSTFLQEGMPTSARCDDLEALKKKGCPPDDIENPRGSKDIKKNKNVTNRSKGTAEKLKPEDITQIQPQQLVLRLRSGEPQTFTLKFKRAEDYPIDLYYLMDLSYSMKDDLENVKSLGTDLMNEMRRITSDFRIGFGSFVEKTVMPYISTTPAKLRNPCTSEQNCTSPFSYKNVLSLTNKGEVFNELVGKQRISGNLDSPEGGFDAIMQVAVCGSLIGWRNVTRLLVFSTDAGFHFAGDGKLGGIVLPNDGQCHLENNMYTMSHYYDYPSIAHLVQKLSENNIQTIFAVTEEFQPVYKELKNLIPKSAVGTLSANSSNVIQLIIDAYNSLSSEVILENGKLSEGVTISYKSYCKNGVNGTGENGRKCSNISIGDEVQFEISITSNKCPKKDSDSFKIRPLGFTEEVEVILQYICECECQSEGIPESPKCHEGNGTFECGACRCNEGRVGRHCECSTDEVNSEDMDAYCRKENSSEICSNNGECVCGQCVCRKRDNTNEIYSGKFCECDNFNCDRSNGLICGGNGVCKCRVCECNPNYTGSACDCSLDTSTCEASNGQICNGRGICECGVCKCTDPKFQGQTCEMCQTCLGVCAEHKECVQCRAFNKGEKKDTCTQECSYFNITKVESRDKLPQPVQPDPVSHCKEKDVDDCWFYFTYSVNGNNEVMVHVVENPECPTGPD
T3 sequence (P06756 31-992 limits assumed): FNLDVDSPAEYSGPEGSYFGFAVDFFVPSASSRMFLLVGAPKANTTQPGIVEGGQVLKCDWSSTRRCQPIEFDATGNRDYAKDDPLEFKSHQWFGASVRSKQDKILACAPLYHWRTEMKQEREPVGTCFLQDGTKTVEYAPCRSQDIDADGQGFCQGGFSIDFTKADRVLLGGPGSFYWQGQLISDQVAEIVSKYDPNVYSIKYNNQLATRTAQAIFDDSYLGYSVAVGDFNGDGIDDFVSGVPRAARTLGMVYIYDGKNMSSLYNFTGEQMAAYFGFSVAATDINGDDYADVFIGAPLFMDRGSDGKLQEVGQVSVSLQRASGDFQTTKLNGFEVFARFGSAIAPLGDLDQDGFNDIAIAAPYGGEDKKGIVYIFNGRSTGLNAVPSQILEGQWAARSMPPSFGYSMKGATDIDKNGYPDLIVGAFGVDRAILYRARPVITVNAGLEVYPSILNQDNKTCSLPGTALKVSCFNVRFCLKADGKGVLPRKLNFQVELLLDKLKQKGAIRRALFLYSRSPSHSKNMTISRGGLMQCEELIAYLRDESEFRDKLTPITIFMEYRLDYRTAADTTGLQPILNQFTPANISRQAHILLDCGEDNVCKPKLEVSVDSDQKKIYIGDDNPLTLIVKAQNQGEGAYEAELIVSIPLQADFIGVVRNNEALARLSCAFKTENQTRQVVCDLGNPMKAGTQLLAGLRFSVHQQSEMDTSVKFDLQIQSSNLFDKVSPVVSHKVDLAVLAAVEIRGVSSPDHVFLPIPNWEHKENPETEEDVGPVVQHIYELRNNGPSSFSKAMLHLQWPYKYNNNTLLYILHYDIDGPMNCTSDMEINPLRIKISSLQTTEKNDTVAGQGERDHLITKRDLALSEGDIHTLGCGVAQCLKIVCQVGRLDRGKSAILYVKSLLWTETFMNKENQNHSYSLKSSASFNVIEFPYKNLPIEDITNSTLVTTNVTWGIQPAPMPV
T3 sequence (P05106 27-718 limits assumed): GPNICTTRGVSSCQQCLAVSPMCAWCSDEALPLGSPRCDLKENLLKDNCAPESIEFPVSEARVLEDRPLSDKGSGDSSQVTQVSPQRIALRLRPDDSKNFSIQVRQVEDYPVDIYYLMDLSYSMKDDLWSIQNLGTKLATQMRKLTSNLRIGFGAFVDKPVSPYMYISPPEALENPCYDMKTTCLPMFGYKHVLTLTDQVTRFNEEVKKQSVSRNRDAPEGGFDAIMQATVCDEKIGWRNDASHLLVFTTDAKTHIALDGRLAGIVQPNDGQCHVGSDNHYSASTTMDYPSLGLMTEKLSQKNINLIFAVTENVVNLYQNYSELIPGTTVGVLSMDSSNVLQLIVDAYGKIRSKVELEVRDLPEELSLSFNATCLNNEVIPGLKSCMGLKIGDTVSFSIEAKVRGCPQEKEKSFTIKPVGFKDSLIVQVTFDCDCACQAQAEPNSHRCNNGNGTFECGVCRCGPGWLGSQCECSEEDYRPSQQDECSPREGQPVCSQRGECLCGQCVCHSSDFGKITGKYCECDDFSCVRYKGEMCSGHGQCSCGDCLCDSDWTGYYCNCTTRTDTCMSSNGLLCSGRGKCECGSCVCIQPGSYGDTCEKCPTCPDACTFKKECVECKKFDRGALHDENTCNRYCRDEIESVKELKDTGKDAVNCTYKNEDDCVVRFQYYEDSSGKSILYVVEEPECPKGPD
T1 sequence (P17301 30-1132 limits assumed): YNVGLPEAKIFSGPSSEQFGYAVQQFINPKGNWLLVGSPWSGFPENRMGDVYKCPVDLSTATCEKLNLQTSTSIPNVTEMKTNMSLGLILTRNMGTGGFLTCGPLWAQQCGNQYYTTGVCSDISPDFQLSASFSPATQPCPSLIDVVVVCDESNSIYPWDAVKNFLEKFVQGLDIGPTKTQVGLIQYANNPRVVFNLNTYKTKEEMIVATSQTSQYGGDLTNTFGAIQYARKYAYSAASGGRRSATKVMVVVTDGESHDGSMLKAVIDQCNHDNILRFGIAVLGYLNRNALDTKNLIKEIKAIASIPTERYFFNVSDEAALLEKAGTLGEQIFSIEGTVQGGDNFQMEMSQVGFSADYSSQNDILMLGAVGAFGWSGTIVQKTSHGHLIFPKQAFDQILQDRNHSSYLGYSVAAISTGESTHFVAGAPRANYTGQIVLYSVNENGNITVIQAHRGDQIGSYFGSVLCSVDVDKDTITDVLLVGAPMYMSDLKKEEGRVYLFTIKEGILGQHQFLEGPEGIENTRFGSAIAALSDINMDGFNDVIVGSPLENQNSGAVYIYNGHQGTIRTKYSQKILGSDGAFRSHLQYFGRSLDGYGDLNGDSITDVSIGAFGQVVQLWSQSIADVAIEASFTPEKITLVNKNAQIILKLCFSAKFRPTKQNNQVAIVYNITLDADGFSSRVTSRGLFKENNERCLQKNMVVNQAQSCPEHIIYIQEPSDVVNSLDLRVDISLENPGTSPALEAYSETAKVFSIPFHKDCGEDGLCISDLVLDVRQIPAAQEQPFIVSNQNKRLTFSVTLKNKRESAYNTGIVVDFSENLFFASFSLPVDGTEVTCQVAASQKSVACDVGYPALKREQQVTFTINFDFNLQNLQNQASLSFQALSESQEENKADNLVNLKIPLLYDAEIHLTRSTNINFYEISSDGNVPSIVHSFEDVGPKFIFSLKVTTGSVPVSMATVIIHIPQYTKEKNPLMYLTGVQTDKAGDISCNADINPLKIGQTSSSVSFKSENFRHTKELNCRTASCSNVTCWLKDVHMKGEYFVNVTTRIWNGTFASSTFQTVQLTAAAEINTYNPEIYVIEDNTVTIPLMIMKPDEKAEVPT
T1 sequence (P05556 21-728 limits assumed): as the sequence (P05556 21-728 limits assumed) above

CPGFPGFC [PGF peptide]
direct binding of α2β1 to the synthetic HU177 epitope (integrin α2β1 [1]): bound | binding of α10β1 to the synthetic HU177 epitope, relative to α2β1 (integrin α10β1 [2]): 4 fold | direct binding of αvβ3 to the synthetic HU177 epitope (integrin αvβ3 [3]): failed to bind | expression of TGF-β in mouse serum (TGF-β): induce the expression | competition of binding of α10β1 to denatured collagen (integrin α10β1 [4]; soluble peptide, FIG. 23G): approximately 60%

RGDKGE (immobilized on wells) [XL313 epitope]
levels of PDL-1 protein in M21 melanoma cells following binding (PDL-1 [5]): enhanced levels of PDL-1 protein

denatured collagen-IV: αvβ3 binding ECM ligand coated on wells
levels of PDL-1 protein in melanoma and endothelial cells following binding (PDL-1 [6]): enhanced levels of PDL-1 protein

denatured collagen: collagen type-I denatured by boiling the solution for 15 minutes
enhancement of fibroblast adhesion as compared to native collagen (fibroblasts [7]): 29% | enhancement of SKOV-3 adhesion as compared to native collagen (SKOV-3 cells [8]): 38% | enhancement of fibroblast migration as compared to native collagen (fibroblasts [9]): 19% | enhancement of SKOV-3 migration as compared to native collagen (SKOV-3 cells [10]): 34% | binding of integrin α2β1 to denatured collagen (integrin α2β1 [11]): dose dependently bound | binding of integrin α1β1 to denatured collagen (integrin α1β1): minimal interactions | binding of denatured collagen and integrin α10β1 (integrin α10β1 [4]; FIG. 23A, 23B): dose dependently bound | binding of integrin αvβ3 to denatured collagen (integrin αvβ3 [12]): dose dependently bound
